According to US20210071137A1, “PRODUCTION METHOD FOR CELL MASS INCLUDING NEURAL CELLS/TISSUE AND NON-NEURAL EPITHELIAL TISSUE, AND CELL MASS FROM SAME” (SUMITOMO CHEMICAL COMPANY, LIMITED, priority 2017, published 2021):
Structures can show the parent of a compound that is named as a salt.

Tests used:
Type in all cases: cell-based
[1] = system: cell mass containing neural tissue and nonneural epithelial tissue prepared from human ES cell line KhES-1; assay: Compound stimulability test by fluorescein staining and extraction (Example 11); settings: test compound 2.5% in PBS, 24 hr, 37° C.; 0.02% fluorescein 30 sec; extraction 10 min; excitation 485 nm, emission 535 nm; Category 1 compound versus Category 2 compound
Protocol: Cell masses were prepared by the method described in Example 3 from human ES cell line KhES-1. Cell masses were collected using micropipette on day 28 from the start of suspension culturing, placed in a dish for suspension culture (manufactured by SUMITOMO BAKELITE CO., LTD.), and further cultured in suspension under the conditions of 37° C., 5% CO2 for 9 days. As the serum-free medium (gfCDM+KSR) therefor, a serum-free medium which is a 1:1 mixture of F-12+Glutamax medium (manufactured by Thermo Fisher Scientific) and […] medium (manufactured by Thermo Fisher Scientific) supplemented with 10% Knockout Serum Replacement (manufactured by Thermo Fisher Scientific), 450 μM 1-mono thioglycerol (manufactured by Wako Pure Chemical Industries, Ltd.), 1×Chemically defined lipid concentrate (manufactured by Thermo Fisher Scientific), 50 unit/ml penicillin-50 μg/ml streptomycin (manufactured by Nacalai Tesque) was used.
The cell masses on day 37 of suspension culturing and prepared by the above-mentioned method were added to 1.5 ml microtubes at 3 masses per tube, and washed twice with PBS. […] The concentration of fluorescein in the extract prepared by the above-mentioned method was measured using a fluorescent plate reader (2104 EnVision multilabel counter, manufactured by Perkin Elmer) under the conditions of excitation 485 nm and emission 535 nm.

[2] = system: Human ES cells (KhES-1 strain); assay: Consideration of concentration of BMP4 in production of cell mass (Example 6)
Protocol: Human ES cells (KhES-1 strain, obtained from Kyoto University) were cultured under feeder-free conditions according to the method described in Scientific Reports, 4, 3594 (2014). As the feeder-free medium, StemFit medium was used and, as the feeder-free scaffold, Laminin 511-E8 was used. Specific maintenance culturing operation was performed in the same manner as in Comparative Example 1.
The thus-prepared subconfluent human ES cells were washed with PBS, subjected to an enzyme treatment using Accumax, a serum-free medium for differentiation induction was added, and the cells were scraped from the surface of the culture dish by using a cell scraper and dispersed into single cells by pipetting. Thereafter, the aforementioned human ES cells dispersed into single cells were suspended in 100 μl of a serum-free medium at 1×10^4 cells per well of a non-cell-adhesive 96-well culture plate (PrimeSurface 96V-bottom plate, manufactured by SUMITOMO BAKELITE), and cultured in suspension under the conditions of 37° C., 5% CO2. […]

[3] = system: Human ES cells (KhES-1 strain); assay: Consideration of timing of addition of BMP4 in production of cell mass (Example 4)
Protocol: Human ES cells (KhES-1 strain, obtained from Kyoto University) were cultured under feeder-free conditions according to the method described in Scientific Reports, 4, 3594 (2014). As the feeder-free medium, StemFit medium was used and, as the feeder-free scaffold, […] was used.
Specific maintenance culturing operation was performed in the same manner as in Comparative Example 1. Thereafter, suspension culturing in a 96-well plate under conditions similar to those in Comparative Example 1 was started. The condition without addition of a BMP signal transduction pathway activating substance during the suspension culturing period was taken as the control (−BMP4 condition, FIG. 5A). In the condition with the addition of a BMP signal transduction pathway activating substance simultaneously with the start of the suspension culturing (Day0+BMP4 condition, FIG. 5B), human recombinant BMP4 (manufactured by R & D Systems, 1.5 nM, start of step 2) was added. Thereafter, in the condition with the addition of a BMP signal transduction pathway activating substance on days 1, 2, 3 from the start of suspension culturing (Day1-3+BMP4 condition, FIGS. 5C-E), a serum-free medium not containing Y27632 and containing IWP-2, SB-431542, BMP4 was added at 100 μl per well. BMP4 was added at 3 nM to the medium such that the final concentration thereof in the well was 1.5 nM. Only in the Day0+BMP4 condition, a serum-free medium not containing Y27632 and containing IWP-2, SB-431542, BMP4 was added at 100 μl per well on day 3 from the start of suspension culturing. In the condition with the addition of a BMP signal transduction pathway activating substance on day 6 from the start of differentiation induction (Day6+BMP4 condition, FIG. 5F), a serum-free medium not containing Y27632 or BMP4 and containing IWP-2 and SB-431542 was added at 100 μl per well on day 3 from the start of differentiation induction, and a half amount of the medium was changed on day 6 with a serum-free medium not containing Y27632 and containing IWP-2, SB-431542, BMP4. Under other conditions, a half amount of the medium was changed with a serum-free medium not containing Y27632 or BMP and containing IWP-2 and SB-431542 on day 6 from the start of suspension culturing. On day 10 from the start of suspension culturing, bright field observation was performed using an inverted microscope (manufactured by KEYENCE CORPORATION, BIOREVO) (FIGS. 5A-B).

[4] = BMP4 1.5 nM, observation day 10

elution amount after incorporation of fluorescein [1] | Molecule | BMP4 concentration at which nonneural epithelial tissue can be formed on the surface of cell mass ([2]; BMP4 added on day 2 from the start of suspension culturing) | formation of cell mass having nonneural epithelial tissue on the surface ([2]; BMP4 at any concentration from 0.1 nM to 5 nM added on day 2, IWP-2 2 μM, SB-431542 1 μM, observation day 10) | time of addition from the start of suspension culturing effective for formation of the cell mass ([3]; BMP4 1.5 nM) [h] | formation of cell masses with two-layer structure ([3]; BMP4 1.5 nM added on day 1 and day 2 (Day1, 2+BMP4), observation day 10) | efficiency of formation of nonneural epithelium-like tissue on the outside ([3]; BMP4 1.5 nM added on day 3 and day 6, observation day 10) | formation of embryoid body ([3]; BMP4 1.5 nM added simultaneously with start of differentiation induction (Day0+BMP4), observation day 10) | diameter of embryoid body, BMP4 on day 2 relative to BMP4 on day 1 [3, 4] | volume of embryoid body, BMP4 on day 2 relative to BMP4 on day 1 [3, 4]
significant difference | O=Cc1ccc(C(=O)O)cc1 [4-formylbenzoic acid] | – | – | – | – | – | – | – | –
significant difference | CC(CN1c2ccccc2Sc2ccccc21)N(C)C (stereo not shown) [promethazine hydrochloride] | – | – | – | – | – | – | – | –
– | BMP4: human recombinant BMP4 (manufactured by R & D Systems), BMP signal transduction pathway activating substance (protein, UniProt P12644 293-408, looked up) Bone morphogenetic protein 4: SPKHHSQRARKKNKNCRRHSLYVDFSDVGWNDWIVAPPGYQAFYCHGDCPFPLADHLNSTNHAIVQTLVNSVNSSIPKACCVPTELSAISMLYLDEYDKVVLKNYQEMVVEGCGCR | not less than 0.1 nM | a cell mass having nonneural epithelial tissue on the surface was formed | ≤ 72 | cell masses containing neural tissue and nonneural epithelial tissue and having a two-layer structure in which a center part with a neuroepithelium-like structure is covered with a nonneural epithelium-like layer were formed | lower than that of the condition with the addition of BMP4 on day 2 | markedly inhibited | about 1.3 times | about 2.2 times
